The values that follow come from paper PMC12827327.

Assay [1] has as its target actin filament (F-actin) of chicken skeletal α-actin, pointed end (chicken) (UniProt P68139). The assay can be described thus: pyrene-actin pointed end elongation assay; apparent KD from inhibition of pointed end elongation; 0.8 µM F-actin seeds with 8 nM capping protein incubated with the titrated protein, 2 µM G-actin (8% pyrene-labeled) added; 10 mM HEPES pH 7.4, 50 mM KCl, 1 mM MgCl2, 1 mM EGTA; hyperbolic fit of normalized rates.

Assay [2] has the same target.
Assay [3] has the same target. The source holds these as a separate data set.
Assay [4] shares this target. This is another data set of the same source.
The target is the same in assay [5]. The assay can be described thus: pyrene-actin dilution-induced pointed end depolymerization assay; apparent KD from inhibition of pointed end depolymerization; 10 µM CP-capped pyrene F-actin (20% labeled) incubated with the protein 15 min on ice, diluted to 0.5 µM; hyperbolic fit of normalized rate constants.

human SH3BGRL, sequence (O75368 whole entry): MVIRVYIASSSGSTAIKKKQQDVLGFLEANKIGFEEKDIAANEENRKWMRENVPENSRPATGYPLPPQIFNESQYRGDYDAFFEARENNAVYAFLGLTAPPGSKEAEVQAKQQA
human SH3BGRL-3, sequence (Q9H299 whole entry): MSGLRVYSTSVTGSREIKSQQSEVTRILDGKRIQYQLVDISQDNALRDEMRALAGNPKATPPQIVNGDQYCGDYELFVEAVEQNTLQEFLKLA
human tropomodulin-3, sequence (Q9NYL9 whole entry): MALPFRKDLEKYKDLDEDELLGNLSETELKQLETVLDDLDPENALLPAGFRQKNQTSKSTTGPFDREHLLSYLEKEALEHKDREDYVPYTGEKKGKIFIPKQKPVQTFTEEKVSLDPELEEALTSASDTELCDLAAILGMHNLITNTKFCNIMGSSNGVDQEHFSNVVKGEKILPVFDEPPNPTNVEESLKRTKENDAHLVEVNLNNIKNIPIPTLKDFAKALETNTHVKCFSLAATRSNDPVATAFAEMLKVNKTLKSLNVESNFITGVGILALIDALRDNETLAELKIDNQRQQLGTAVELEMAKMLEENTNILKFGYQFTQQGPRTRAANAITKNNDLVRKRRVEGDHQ

For the substance “human SH3BGRL (from UniProt O75368 1-114) (natural protein)”, the Kd in assay [1] was found to be 85 nM. Besides, the pyrene-actin bulk polymerization from 2 µM α-actin (5% pyrene-labeled), increasing SH3BGRL: increase of the net polymerization rate in assay [2] was below 3 fold. Moreover, the apparent rate of filament nucleation knuc, TIRFM, 1 µM ATTO-488 α-actin, 1-5 µM SH3BGRL (actin only: 5.1 × 10^-6) in assay [3] was 2.22e-05 µm^-2 s^-1. Besides, the concentration required for half-maximal inhibition of pointed end depolymerization (K50%), CP-capped pyrene F-actin in assay [4] was found to be 7.6 µM.
For “human SH3BGRL-3 (from UniProt Q9H299 1-93) (natural protein)”, the Kd in assay [1] came to 31 nM. Further, the pyrene-actin bulk polymerization from 2 µM α-actin (5% pyrene-labeled), increasing SH3BGRL-3: increase of the net polymerization rate in assay [2] is below 3 fold. In addition, in assay [3], the apparent rate of filament nucleation knuc, TIRFM, 1 µM ATTO-488 α-actin, 0.5-5 µM SH3BGRL-3 (actin only: 5.1 × 10^-6) is 3.42e-05 µm^-2 s^-1. The substance also displayed a concentration required for half-maximal inhibition of pointed end depolymerization (K50%), CP-capped pyrene F-actin in assay [4] of 7.7 µM.
As to “human tropomodulin-3 (from UniProt Q9NYL9 1-352) (natural protein)”, the values for the Kd in assay [1] and in assay [5] were 180 nM and 130 nM, respectively.
